Assay results: patent publication US20030068675, “Position dependent recognition of GNN nucleotide triplets by zinc fingers” (published 2003)
Numbering of substitutions follows the chain as printed.

Assays:
Test in all cases: EMSA
Settings in all cases: tags: MBP fusion
ZFP SBS#1311 = ZFP SBS#1311 (synthetic)
Procedure, shortened: (§1)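 Purified ZFP was titrated against labeled double-stranded target (1 nM or lower, at least 10-fold below expected Kd) carrying the natural binding site with flanks. Binding buffer was 10 mM Tris pH 7.5, 100 mM KCl, 1 mM MgCl2, 0.1 mM ZnCl2, 5 mM DTT, 10% glycerol, 0.02% BSA, with equilibration for at least 45 min. Bound and free target were separated on a 10% polyacrylamide gel.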

ZFP SBS#1308 = target: T1, ZFP SBS#1308 (synthetic)
T1 chain: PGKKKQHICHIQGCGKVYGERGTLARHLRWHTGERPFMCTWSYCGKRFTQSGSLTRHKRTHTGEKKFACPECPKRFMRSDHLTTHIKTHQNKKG
Procedure, shortened: as §1

ZFP SBS#440 = target: T2, ZFP SBS#440 (synthetic)
T2 chain: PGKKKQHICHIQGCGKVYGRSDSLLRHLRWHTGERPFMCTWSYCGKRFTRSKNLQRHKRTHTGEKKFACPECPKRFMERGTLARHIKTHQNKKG
Procedure, shortened: as §1

ZFP SBS#505 = target: T3, ZFP SBS#505 (synthetic)
T3 chain: T2 chain with K52D, Q55A, E78D, R79C, G80R, T81D
Procedure, shortened: as §1

ZFP SBS#503 = target: T4, ZFP SBS#503 (synthetic)
T4 chain: T2 chain with K52D, Q55A
Procedure, shortened: as §1

ZFP SBS#504 = target: T5, ZFP SBS#504 (synthetic)
T5 chain: T2 chain with K52D, Q55A, E78D, G80S, T81D, A83T
Procedure, shortened: as §1

ZFP SBS#739 = target: T6, ZFP SBS#739 (synthetic)
T6 chain: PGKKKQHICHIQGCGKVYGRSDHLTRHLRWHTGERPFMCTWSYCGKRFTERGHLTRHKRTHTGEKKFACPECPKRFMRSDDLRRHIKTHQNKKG
Procedure, shortened: as §1

ZFP SBS#526 = target: T7, ZFP SBS#526 (synthetic)
T7 chain: T6 chain with D81T, R83K, R84K
Procedure, shortened: as §1

ZFP SBS#1276 = target: T8, ZFP SBS#1276 (synthetic)
T8 chain: T1 chain with E20R, R21S, G22D, T23N, S51R, G52S, S53N, T55V, H81N
Procedure, shortened: as §1

ZFP SBS#1297 = ZFP SBS#1297 (synthetic)
Procedure, shortened: as §1

ZFP SBS#1306 = target: T9, ZFP SBS#1306 (synthetic)
T9 chain: T6 chain with H23A, R26T, E50D, R51C, G52R, H53D, T55A, D81A, R84E
Procedure, shortened: as §1

ZFP SBS#1310 = target: T10, ZFP SBS#1310 (synthetic, UniProt P08047)
T10 chain: T1 chain with E20T, R21T, G22S, T23A, R26S, Q50R, G52D, S53N, T55A, H81N
Procedure, shortened: as §1

ZFP SBS#1309 = target: T11, ZFP SBS#1309 (synthetic)
T11 chain: T1 chain with E20Q, R21S, G22S, T23A, R26S, Q50R, G52D, S53N, T55A, H81N
Procedure, shortened: as §1

ZFP SBS#1303 = target: T12, ZFP SBS#1303 (synthetic)
T12 chain: T1 chain with E20Q, G22S, T23A, R26S, Q50R, G52D, S53N, T55A, H81N
Procedure, shortened: as §1

ZFP SBS#1298 = ZFP SBS#1298 (synthetic)
Procedure, shortened: as §1

ZFP SBS#1239 = target: T13, ZFP SBS#1239 (synthetic)
T13 chain: T6 chain with H23A, E50D, R51P, H53N, T55V, D81N, R83K, R84D
Procedure, shortened: as §1

ZFP SBS#1273 = target: T14, ZFP SBS#1273 (synthetic)
T14 chain: T1 chain with T23D, A25T, R26T, Q50R, G52D, S53N, T55A, H81N, T83R, T84E
Procedure, shortened: as §1

ZFP SBS#1296 = target: T15, ZFP SBS#1296 (synthetic)
T15 chain: T1 chain with T23D, A25T, R26T, Q50R, G52D, S53N, T55A, H81N, T84E
Procedure, shortened: as §1

ZFP SBS#1295 = target: T16, ZFP SBS#1295 (synthetic)
T16 chain: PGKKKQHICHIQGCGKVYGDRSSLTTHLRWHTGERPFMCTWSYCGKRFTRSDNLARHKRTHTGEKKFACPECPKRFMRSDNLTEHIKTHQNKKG
Procedure, shortened: as §1

ZFP SBS#1272 = target: T17, ZFP SBS#1272 (synthetic)
T17 chain: T16 chain with T83R
Procedure, shortened: as §1

ZFP SBS#1312 = ZFP SBS#1312 (synthetic, UniProt P08047)
Procedure, shortened: as §1

ZFP SBS#1313 = ZFP SBS#1313 (synthetic, UniProt P08047)
Procedure, shortened: as §1

ZFP SBS#1314 = ZFP SBS#1314 (synthetic)
Procedure, shortened: as §1

ZFP SBS#1315 = ZFP SBS#1315 (synthetic)
Procedure, shortened: as §1

ZFP SBS#1270 = ZFP SBS#1270 (synthetic)
Procedure, shortened: as §1

ZFP SBS#1292 = target: T18, ZFP SBS#1292 (synthetic)
T18 chain: T1 chain with E20Q, R21S, T23H, Q50T, S53N, T55V, H81A
Procedure, shortened: as §1

ZFP SBS#1248 = target: T19, ZFP SBS#1248 (synthetic)
T19 chain: T2 chain with R20Q, D22G, S23A, L25T, K52D, Q55T, R56T, E78D, G80S, T81A
Procedure, shortened: as §1

ZFP SBS#1300 = ZFP SBS#1300 (synthetic)
Procedure, shortened: as §1

ZFP SBS#1294 = ZFP SBS#1294 (synthetic)
Procedure, shortened: as §1

ZFP SBS#1293 = target: T20, ZFP SBS#1293 (synthetic)
T20 chain: T1 chain with E20T, R21S, T23H, A25V, S53A, T55A, H81N, T84Q
Procedure, shortened: as §1

ZFP SBS#1252 = target: T21, ZFP SBS#1252 (synthetic)
T21 chain: T1 chain with E20Q, G22A, T23H, A25E, G52S, S53D, H81T, T83R, T84E
Procedure, shortened: as §1

ZFP SBS#1302 = target: T22, ZFP SBS#1302 (synthetic)
T22 chain: T6 chain with R20Q, D22G, E50Q, R51S, G52S, H53D, D81T, R84E
Procedure, shortened: as §1

ZFP SBS#1290 = ZFP SBS#1290 (synthetic)
Procedure, shortened: as §1

ZFP SBS#1291 = ZFP SBS#1291 (synthetic)
Procedure, shortened: as §1

ZFP SBS#1289 = ZFP SBS#1289 (synthetic)
Procedure, shortened: as §1

ZFP SBS#1267 = ZFP SBS#1267 (synthetic)
Procedure, shortened: as §1

ZFP SBS#1311 (synthetic), sequence (chain, as listed by the source): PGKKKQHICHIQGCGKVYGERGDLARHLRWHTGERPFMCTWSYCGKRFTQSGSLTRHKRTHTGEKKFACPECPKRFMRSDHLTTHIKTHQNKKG
ZFP SBS#1291 (synthetic), sequence (chain, as listed by the source): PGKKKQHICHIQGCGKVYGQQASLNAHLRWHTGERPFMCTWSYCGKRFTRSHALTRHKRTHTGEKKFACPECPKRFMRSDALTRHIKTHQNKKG
ZFP SBS#1300 (synthetic), sequence (chain, as listed by the source): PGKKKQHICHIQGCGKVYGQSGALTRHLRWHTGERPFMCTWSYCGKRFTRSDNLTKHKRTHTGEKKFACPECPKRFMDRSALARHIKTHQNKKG
ZFP SBS#1270 (synthetic), sequence (chain, as listed by the source): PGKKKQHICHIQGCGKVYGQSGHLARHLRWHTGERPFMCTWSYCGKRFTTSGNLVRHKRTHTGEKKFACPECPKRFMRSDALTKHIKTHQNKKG
ZFP SBS#1267 (synthetic), sequence (chain, as listed by the source): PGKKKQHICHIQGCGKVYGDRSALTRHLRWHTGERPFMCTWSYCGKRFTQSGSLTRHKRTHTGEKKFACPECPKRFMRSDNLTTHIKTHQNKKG
ZFP SBS#1313, sequence (P08047 other isoform, or with tags, fused parts or gaps): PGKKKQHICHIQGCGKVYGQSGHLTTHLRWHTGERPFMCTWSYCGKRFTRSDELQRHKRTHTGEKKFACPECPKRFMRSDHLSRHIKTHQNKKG
ZFP SBS#1289 (synthetic), sequence (chain, as listed by the source): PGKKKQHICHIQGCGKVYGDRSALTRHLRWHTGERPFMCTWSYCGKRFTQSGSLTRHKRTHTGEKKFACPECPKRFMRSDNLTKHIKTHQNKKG
ZFP SBS#1298 (synthetic), sequence (chain, as listed by the source): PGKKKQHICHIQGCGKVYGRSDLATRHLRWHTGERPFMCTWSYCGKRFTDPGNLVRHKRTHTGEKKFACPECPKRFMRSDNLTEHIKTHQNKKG
ZFP SBS#1297 (synthetic), sequence (chain, as listed by the source): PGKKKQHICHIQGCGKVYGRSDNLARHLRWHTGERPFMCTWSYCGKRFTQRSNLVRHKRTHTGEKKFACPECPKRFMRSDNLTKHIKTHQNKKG
ZFP SBS#1294 (synthetic), sequence (chain, as listed by the source): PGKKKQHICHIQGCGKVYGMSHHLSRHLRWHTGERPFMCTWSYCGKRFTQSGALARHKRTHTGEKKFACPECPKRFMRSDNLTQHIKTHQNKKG
ZFP SBS#1315 (synthetic), sequence (chain, as listed by the source): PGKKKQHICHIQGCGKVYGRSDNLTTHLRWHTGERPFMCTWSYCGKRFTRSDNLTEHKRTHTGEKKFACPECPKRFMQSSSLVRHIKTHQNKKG
ZFP SBS#1290 (synthetic), sequence (chain, as listed by the source): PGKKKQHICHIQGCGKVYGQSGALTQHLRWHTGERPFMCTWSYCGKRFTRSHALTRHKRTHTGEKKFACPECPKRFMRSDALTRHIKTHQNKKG
ZFP SBS#1312, sequence (P08047 other isoform, or with tags, fused parts or gaps): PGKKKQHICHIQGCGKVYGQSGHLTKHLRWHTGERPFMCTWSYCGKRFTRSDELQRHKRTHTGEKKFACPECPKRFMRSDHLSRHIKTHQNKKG

B1: TGGGCAGCC (dsDNA)
DNA 1: TGGGCAGCC
DNA 2: GGCTGCCCA
Question: Which results are given for B1?
Answer: Kd (ZFP SBS#1311): 0.91 nM; Kd (ZFP SBS#1308): 0.305 nM

B2: GCCGAGGTGC (dsDNA)
DNA 1: GCCGAGGTGC
DNA 2: GCACCTCGGC
Question: Which Kd (ZFP SBS#440) does the source give for B2 here?
Answer: 40 nM

Question: And the Kd (ZFP SBS#505)?
Answer: 65 nM

Question: And the Kd (ZFP SBS#503)?
Answer: 50 nM

Question: And the Kd (ZFP SBS#504)?
Answer: 25 nM

B3: GCGGGCGGGC (dsDNA)
DNA 1: GCGGGCGGGC
DNA 2: GCCCGCCCGC
Question: B3 was tested. Which Kd (ZFP SBS#739) did it give?
Answer: 16.5 nM

Question: And the Kd (ZFP SBS#526)?
Answer: 8 nM

B4: TAGGAAGAG (dsDNA)
DNA 1: TAGGAAGAG
DNA 2: CTCTTCCTA
Question: What does the source list for B4?
Answer: Kd (ZFP SBS#1276): 0.685 nM; Kd (ZFP SBS#1297): 0.05 nM

B5: CTGGCCTTG (dsDNA)
DNA 1: CTGGCCTTG
DNA 2: CAAGGCCAG
Question: B5 was tested. Which Kd (ZFP SBS#1306) did it give?
Answer: 2.29 nM

B6: TAGGAGTTT (dsDNA)
DNA 1: TAGGAGTTT
DNA 2: AAACTCCTA
Question: What does the source list for B6?
Answer: Kd (ZFP SBS#1310): 0.075 nM; Kd (ZFP SBS#1309): 0.184 nM; Kd (ZFP SBS#1303): 0.088 nM

B7: CAGGACGTG (dsDNA)
DNA 1: CAGGACGTG
DNA 2: CACGTCCTG
Question: What does the source list for B7?
Answer: Kd (ZFP SBS#1298): 0.05 nM; Kd (ZFP SBS#1239): 0.144 nM

B8: CAGGAGTCC (dsDNA)
DNA 1: CAGGAGTCC
DNA 2: GGACTCCTG
Question: Which results are given for B8?
Answer: Kd (ZFP SBS#1273): 0.1 nM; Kd (ZFP SBS#1296): 37 nM; Kd (ZFP SBS#1295): 0.116 nM; Kd (ZFP SBS#1272): 0.04 nM

B9: GGGGCGTGA (dsDNA)
DNA 1: GGGGCGTGA
DNA 2: TCACGCCCC
Question: What does the source list for B9?
Answer: Kd (ZFP SBS#1312): 0.23 nM; Kd (ZFP SBS#1313): 0.09 nM

B10: GTACAGTAG (dsDNA)
DNA 1: GTACAGTAG
DNA 2: CTACTGTAC
Question: For B10, which Kd (ZFP SBS#1314) is on record?
Answer: 3.09 nM

Question: And the Kd (ZFP SBS#1315)?
Answer: 9.27 nM

B11: TTGGATGGA (dsDNA)
DNA 1: TTGGATGGA
DNA 2: TCCATCCAA
Question: What does the source list for B11?
Answer: Kd (ZFP SBS#1270): 0.4 nM; Kd (ZFP SBS#1292): 4.12 nM

B12: GTCTAGGTA (dsDNA)
DNA 1: GTCTAGGTA
DNA 2: TACCTAGAC
Question: Which Kd (ZFP SBS#1248) does the source give for B12 here?
Answer: 5.14 nM

Question: And the Kd (ZFP SBS#1300)?
Answer: 0.46 nM

B13: AAGGTAGGT (dsDNA)
DNA 1: AAGGTAGGT
DNA 2: ACCTACCTT
Question: Which Kd (ZFP SBS#1294) does the source give for B13 here?
Answer: 2.75 nM

Question: What about the Kd (ZFP SBS#1293) of the same binder?
Answer: 0.457 nM

B14: CCGGCTGGA (dsDNA)
DNA 1: CCGGCTGGA
DNA 2: TCCAGCCGG
Question: With B14 as the binder, how does the Kd (ZFP SBS#1252) read?
Answer: 0.153 nM

Question: And the Kd (ZFP SBS#1302)?
Answer: 0.05 nM

B15: GTGGTGATA (dsDNA)
DNA 1: GTGGTGATA
DNA 2: TATCACCAC
Question: How did the Kd (ZFP SBS#1290) turn out when B15 was run?
Answer: 24.1 nM

Question: And the Kd (ZFP SBS#1291)?
Answer: 20.6 nM

B16: TAGGCAGTC (dsDNA)
DNA 1: TAGGCAGTC
DNA 2: GACTGCCTA
Question: B16 was tested. Which Kd (ZFP SBS#1289) did it give?
Answer: 1.37 nM

Question: And the Kd (ZFP SBS#1267)?
Answer: 6 nM
